Data from the nanobody polyreactivity screen of Harvey et al. (2022).

Test: yeast display, Sf9 membrane polyspecificity reagent, FACS + sequencing; frameworks hold sequencing errors
Procedure, shortened: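 Synthetic nanobody libraries on Saccharomyces cerevisiae BJ5465 were galactose-induced for 36–48 hours, stained 1 hour at 4 °C with 10% biotinylated, detergent-solubilized Sf9 membrane reagent and enriched on streptavidin microbeads. FACS then separated cells into low and high (top ~1%) gates by anti-HA (expression) and streptavidin (reagent binding) fluorescence. Genes were colony-PCR amplified, MiSeq 2 × 250 sequenced and CDR-length filtered. A clone's polyreactivity label is that of its gate of origin.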

Sequence | polyreactivity (PSR sort gate)
QVQLVESGGGLVQAGGSLRLSCAASGRTFGWNAMGWYIQAPGKERELVAAITSGGSTSYADSVKGRFTISRDNEKNTVYLQMNCLKPEDTAVYYCAAYLGIYSRVNYWGQGTQVTVSS | low polyreactivity
QVQHVESGGGLVQAGGSLSLICAASGSIFCYYAMGWYRKAPGKERELVAAIDSGGSTYYADSVKGRFTISRDNAKNTVYLQMNILKPEDTAVYYCAAGVSSFSPYDSWGQGTQVTVSS | low polyreactivity
QVQLVESGGGLVQAGGSLRLSCAASGNIFKSYTMGWYRQAPGKERELVAAITSGGRTNYADSVKGRFTISRDNAKNTVYLQMNSLKPEDTAVYYCAAKHFRWGTGDYWGQGTQVTVSS | high polyreactivity
QVQLVESGGGLVQAGGSLRLTCAASGRIFGYYVMGWYRQAPGKERELVAAIRSSADSTYYADSVKGRFTISRDNAKNTVYLQMNSLKPEDTAVYYCNADTTGYWSYGFQYYGEDYWGQGTQVTVSS | low polyreactivity
QVQLVESGGGLVQAGGSLRLICAASGIIFFRYAMGWYRQAPGKERELVASIRAIGGSTSYADSVKGRFTISRDNAKNTVYLQMNSLKPEDTAVFYCAARQNYRYGYWGQGTQVTVSS | high polyreactivity
QVQLVESGGGLVQAGGSLRLSCAASGRTFGRYVMGWYIQAPGKERELVARISSAGGTNYADSVKGRFTISRDNAKNTVYLQMNSLKPEDTAVYYCNFTRYWRAHLGYYWGQGTQVTVSS | high polyreactivity
QVQLVESGGGLVQAGGSLRLSCAASGSTFGGYVMGWYRQAPGKERELVAAIRRVGRTYYADSVKGRFTISRDNAKNTVYLQMNSLKPEDTAVYYCATSYYLAYRSITPYDYWGQGTQVTVSS | low polyreactivity
QVQLVESWGGLVQAGGSLRLSCAASGSTFYRYAMGWYRQAPGKERELVAAISRSGGNTFYADSVKGRFTISRDNAKNTVYLQMNSLKQEDTAVYYCAAEAHLACYYRYYGGYGYDYWGQGTQVTVSW | high polyreactivity
QVQLVESGGGLVQAGGSLRLSCAASGITFVSNVMGWYRQAPGKEREFVAAITGRGDSTYADSVKGRFTISRDNAKNTVYLQMNSLKPEDTAFYYCNRESDIYSFVAMNYWGQGTQVTVSS | low polyreactivity
QVQLVESGGGLVQAGGSLRLSCAASGSIFSAYVMGWYRQAPGKERELVAAITRSGGSTYYADSVKGRFTISRDNAKHTVYLQMNSLKPEDTAVYYCAAKSIIRPYAPRRDDMDYWGQGTQVTVSS | low polyreactivity
QVQLVESGGGLLQAGGSLRLICAASGITFRYYTMGWYRQAPVKETELVAAITWSGSSTYYADSVKGRFTISRDNAKNTVYLQMNSLKPEDTAVYYCAKPYHQRSAKVDYWGQGTQVTVSS | low polyreactivity
QVQLVESGGGLVQAGGSLRLSCAASGGIFDGYAMGWYRQAPGKERELVAAINYSVDRTYYADSVKGRFTISRDNAKNTVYLQMNSLKPVDTAVYYCATVPRYVRFGYGYWGQGTQVTVSS | high polyreactivity
QVQLVESGAGLVQAGGSLRLSCAASGRIFHKYAMGWYRQAPGKERELVAAIDWSGGSTYYADSVKGRFTISRDNAKNTVYLQMNSLKPEDTAVYYCAAYWYYEDGQCEARLYGYDYWGQGTQVTVSS | low polyreactivity
QVQLVESGGGLVQAGGSLRLSCAASGYIFGGYAMGWYRQATGKERELVPGISIGVGSTYYADSVKGRFTISRDNAKNTVYLQMNSLKPEDSAVYYCNRVSVGYDYWGQGTQVTVSS | low polyreactivity
QVQLVESGGVLVQAGCSIRLSCSASGLTFIQYAMGWYRQAPGKERELVAAINSGASTRYADSVKGRFTISRDNAKNTVYLQMNSLKPEDTAVYYCNARLRRYTNRYYKYYYWGQGTQVNVSS | high polyreactivity
QVQLVESGGGLVQAGGSLRLSCAASGLTFKRYGMGWYIQAPGKERELVAAINWRGTSTYYADSVKGRFTISRDNAKNTVYLQMNSLKPEDTAVYYCAAVGPFYGPGEYWGQGTQVTVSS | high polyreactivity
QVQLVESGGGLVQAGGSLRLSCAASGFTFYDYAMGWYRQAPGKERELVAAISWDGDRTYYADSVNGRFTISRDNAKNTVYLQMNSLKPEDTAVYYCNAEYSSFSDVQKDSDMDYWGQGTQVTVSS | low polyreactivity
